The record followed here is PMC3266974 (Journal of Medicinal Chemistry, 2012).

The experiment addresses T1, bovine pancreas CPA (Bos taurus, UniProt P00730).
T1 sequence (P00730 111-419): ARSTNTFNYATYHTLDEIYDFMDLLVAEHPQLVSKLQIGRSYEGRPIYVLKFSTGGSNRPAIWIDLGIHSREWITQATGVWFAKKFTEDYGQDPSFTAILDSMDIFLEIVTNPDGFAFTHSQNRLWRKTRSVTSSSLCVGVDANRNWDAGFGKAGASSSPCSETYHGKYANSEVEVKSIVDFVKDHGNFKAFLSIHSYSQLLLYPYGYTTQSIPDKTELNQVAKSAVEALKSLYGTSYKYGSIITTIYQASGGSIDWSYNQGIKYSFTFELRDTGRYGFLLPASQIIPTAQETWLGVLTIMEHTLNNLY
In words: Inhibition of CPA, colorimetric substrate N-. The class given is biochemical. The settings on record: tested in duplicate, na = not active at 30 μM.

“Peptide 6: linear version of namalide (IFKF; not fully specified; Linear (uncyclized) namalide)” registered a half-inhibitory concentration (IC50) of 4.5 ± 0.9 µM.
